According to patent US20160009800A1:

Tests used:
[1] = molecular target: human insulin receptor complexed with human insulin (human) (UniProt P06213); assay: FACS, serum-starved CHO-K1 cells expressing human INSR, with insulin
[2] = molecular target: human insulin receptor complexed with human insulin (human) (UniProt P06213); assay: FACS, CHO-K1 human INSR cells, signal with insulin divided by signal without insulin
[3] = molecular target: human insulin receptor complexed with human insulin (human) (UniProt P06213); assay: FACS competition on hINSR8-CHOK1 cells with insulin; competitor Ab019
[4] = molecular target: human insulin receptor (human) (UniProt P06213); assay: FACS, serum-starved CHO-K1 cells expressing human INSR, no insulin
[5] = molecular target: human insulin receptor complexed with human insulin (human) (UniProt P06213); assay: FACS, CHO-K1 human INSR cells, signal with insulin divided by signal without insulin [cont'd]
[6] = molecular target: human insulin receptor complexed with human insulin (human) (UniProt P06213); assay: FACS, serum-starved CHO-K1 cells expressing human INSR, with insulin [cont'd]
[7] = molecular target: mouse insulin receptor (mouse) (UniProt P15208); assay: FACS, serum-starved CHO-K1 cells expressing mouse INSR, no insulin [cont'd]
[8] = molecular target: mouse insulin receptor complexed with human insulin (mouse; human) (UniProt P15208); assay: FACS, CHO-K1 mouse INSR cells, signal with insulin divided by signal without insulin
[9] = molecular target: mouse insulin receptor complexed with human insulin (mouse; human) (UniProt P15208); assay: FACS, serum-starved CHO-K1 cells expressing mouse INSR, with insulin
[10] = molecular target: mouse insulin receptor (mouse) (UniProt P15208); assay: FACS, serum-starved CHO-K1 cells expressing mouse INSR, no insulin

B1: Ab061 (antibody, IgG2, V domains shown)
VH: QMQLVQSGAEVKKTGESLKISCQGYGYRFTDNWIGWVRQMPGRGLEWMGIIYPGDSETRYSPSFQGQVTISADKSISTAYLEWSSLKASDTAMYYCARHAPLAVAGMALGDWGQGTLVTVSS
VL: QTVVTQEPSFSVSPGGTVTLTCGLSSGSVSTGYSPGWYQQTPGQAPRTLVYNTNTRSSGVPDRFSGSILGNKAALTITGAQADDESDYYCALYMGSGTYVFGGGTKLTVL
[1]
  FACS area under log transformed data MFI: 59
[2]
  FACS area under log transformed data MFI ratio (+insulin/-insulin): 0.29
[3]
  percent competition: < 30%

B2: Ab057 (antibody, IgG2, V domains shown)
VH: QMQLVQSGAEVKKPGESLKISCKGYGYRFSDNWIGWVRQMPGRGLEWMGIIYPGDSETRYSPSFQGQVTISADKSISTAYLQWSSLKASDTAMYYCARHAPLAVAGMALGDWGQGTLVTVSS
VL: QTVVTQEPSFSVSPGGTVTLTCGLTSGSVSTSYYPSWYQQTPGQAPRMLVHSTSTRYSGVPDRFSGSILGNKAALTITGAQADDESDYYCALYMGGGIYVFGGGTQLTVL
[1]
  FACS area under log transformed data MFI: 87
[2]
  FACS area under log transformed data MFI ratio (+insulin/-insulin): 0.56
[4]
  FACS area under log transformed data MFI: 155

B3: Ab069 (antibody, IgG2, V domains shown)
VH: EVQLVQSGAEVKKPGESLKISCKGSGYSFTSYWIGWVRQMPGKGLEWMGIIYPGDSDTRYSPSFQGQVTISADKSISIAYLQWSSLKASDTAMYYCARLGRGYYGMDVWGQGTTVTVSS
VL: SSELTQDPAVSVALGQTVRITCQGDSLRSYYASWYQQKPGQAPVLVIYGKNNRPSGIPDRFSGSRSGNTASLTITGAQAEDEADYYCNSRDSSGNHVVFGGGTKVTVL
[1]
  FACS area under log transformed data MFI: 146
[2]
  FACS area under log transformed data MFI ratio (+insulin/-insulin): 0.41

B4: Ab070 (antibody, IgG2, V domains shown)
VH: EVQLVQSGAEVKKPGESLKISCKGSGYSFTSYWIGWVRQMPGKGLEWMGIIYPGDSDTRYSPSFQGQVTISADKSISTSYLQWSSLRASDTAMYYCARLGSGWYGNDYWGQGTLVTVSS
VL: SSELTQDPAVSVALGQTVRITCQGDSLRSYYTSWYQQKPGQAPVLVIFGKNNRPSGIPDRFSGSSSGNTASLTITGAQAEDEADYYCNSRDSSGNYAVFGGGTQLTVL
[5]
  FACS area under log transformed data MFI ratio (+insulin/-insulin): 0.53
[6]
  FACS area under log transformed data MFI: 150

B5: Ab082 (antibody, IgG2, V domains shown)
VH: QMQLVQSGAEVKKPGESLKISCKGSGYSFTSYWIGWVRQMPGKGLEWMGIIYPGDSDTRYSPSFQGQVTISADKSISTAYLQWSSLKASDTAMYYCARWGPDAFDIWGQGTMVTVSS
VL: EIVLTQSPDFQSVTPKETVTISCRASQNIGVSLHWYQQKPDQSPKVLIKYASQSLSGVPSRFSGTGSGTDFTLTIKSLEAEDAATYYCLQTSSLPWTFGQGTKVEIK
[5]
  FACS area under log transformed data MFI ratio (+insulin/-insulin): 0.59
[6]
  FACS area under log transformed data MFI: 236

B6: Ab052 (antibody, IgG2, V domains shown)
VH: EVQLVQSGAEVKKPGESLKISCKGSGYRFTSYWIGWVRQMPGRGLEWMGIIYPGDSDTRYSPSFQGQVTISVDKSISTAYLQWSSLKASDTAMYYCATHHASGRGLDPWGQGTLVTVSS
VL: QAMLTQPASLSASPGASASLTCTLRSGINVVAYNIYWYRQKSGSPPQSVLRYKSDSDSERDSGVPSRFSGSKDVSANAGILLISGLQSEDEADYYCLIWHNSAWVFGGGTQLTVL
[1]
  FACS area under log transformed data MFI: 134
[2]
  FACS area under log transformed data MFI ratio (+insulin/-insulin): 0.3

B7: Ab078 (antibody, IgG2, V domains shown)
VH: QVQLVQSGGGLVQPGGSLRLSCAASGFTFSSYSMNWVRQAPGKGLEWVSSISSSSSYIYYADSVKGRFTISRDNAKNSLYLQMNSLRAEDTAVYYCARDQGGELLGFTGYFDYWGQGTLVTVSS
VL: DIQLTQSPSSLSASVGDRVTITCRASQGISSALAWYQQKPGKAPKVLIYDASSLERGVPSRFSGSGTGTDFTLTISSLQPEDFASYYCHQFNSYPDTFGQGTRLEIK
[7]
  FACS area under log transformed data MFI: 12

B8: Ab056 (antibody, IgG2, V domains shown)
VH: QVQLVQSGSEVKKPGASVKVSCKASGYTFTNSYMHWVRQAPGQGLEWMGIINPSAGTSYAQKFQGRVTMTRDTSTSTVYMELSSLKSEDTAVYYCARDVGWLPGDYWGQGTLVTVSS
VL: QSALTQPASVSESPGQSITISCTGTGSDIGTYNLVSWYQHHPGKAPKLMIYEVTKRPSGVSNRFSGSKSGNTASLTISGLQAEDEADYYCSSYTSSSTLYVFGTGTKLTVL
[8]
  FACS area under log transformed data MFI ratio (+insulin/-insulin): 1.98
[9]
  FACS area under log transformed data MFI: 41
[10]
  FACS area under log transformed data MFI: 21

B9: Ab050 (antibody, IgG2, V domains shown)
VH: QVQLVQSGAELKKPGATVKISCKVSGYTFGDYHMHWVKQAPGKGLEWMGLVDPENGETEYGEKFQDRITMAADTSTDTAYMELSSLRSEDTAVYYCARSPSSSGYFRVDGFDIWGQGTMVTVSS
VL: NFMLTQPHSVSESPGKTVSISCTGSSGSIGSNYVQWYQQRPGSAPTTVIYEDNQRPSGVPDRFSGSIDSSSNSASLTISGLKTEDEADYYCQSYYNSNVVFGGGTKLTVL
[1]
  FACS area under log transformed data MFI: 81
[2]
  FACS area under log transformed data MFI ratio (+insulin/-insulin): 0.32

B10: Ab072 (antibody, IgG2, V domains shown)
VH: QMQLVQSGAEVKKPGESLKISCKGSGYSFTGYWIGWVRQMPGKGLEWMGIIYPGDSDTRYSPSFQGQVTISADKSISTAYLQWSSLKVSDTAMYYCGRISTPYAFDIWGQGTMVTVSS
VL: SYVLTQPPSASGTPGQRVTISCSGSNSNIGSNFVTWYQQLPGAAPKLLIYTNSQRPSGVPDRFSGSRSGTSASLAISGLQSEDEADYFCAAWDDSLNGPVFGGGTQLTVL
[5]
  FACS area under log transformed data MFI ratio (+insulin/-insulin): 0.37
[6]
  FACS area under log transformed data MFI: 84

B11: Ab065 (antibody, IgG2, V domains shown)
VH: QVQLVQSGAEVKKPGESLKISCKGSGYSFTSYWIGWVRQMPGKGLEWMGIIYPGDSDTRYSPSFQGQVTISADKSISTAYLQWSSLKASDTAMYYCARHELGIDYWGQGTLVTVSS
VL: QAGLTQPPSVSKGLRQTATLTCTGDNNIVGDQGAAWLQQHQGHPPKLLSFRNNSRPSGISERFSASRSRNTASLTITRLQPEDAADYYCSAWDSFLSAWVFGGGTKLTVL
[1]
  FACS area under log transformed data MFI: 57
[2]
  FACS area under log transformed data MFI ratio (+insulin/-insulin): 0.28

B12: Ab071 (antibody, IgG2, V domains shown)
VH: EVQLVQSGAEVKKPGESLKISCKGSGYSFTSYWIGWVRQMPGKGLEWMGIIYPGDSDTRYSPSFQGQVTISADKSISTAYLQWSSLKASDTAMYYCARWDAGYSPWGQGTLVTVSS
VL: SSELTQDPAVSVALGQTVRITCQGDSLRSYYASWYQQKPGQAPVLVFYGKNNRPSGIPGRFSGSKSGNTASLTITGAQAEDEADYYCNSRDSSGNHWVFGGGTKLTVL
[5]
  FACS area under log transformed data MFI ratio (+insulin/-insulin): 0.4
[6]
  FACS area under log transformed data MFI: 194

B13: Ab059 (antibody, IgG2, V domains shown)
VH: EVQLVQSGAEVKKPGSSVKVSCKASGGTFSSYAISWVRQAPGQGLEWMGRIIPIFGIANYAQKFQGRVTITADKSTSTAYMELSSLRSEDTAVYYCAREPDYDFWNDAFDIWGQGTMVTVSS
VL: QAVLTQPASLSASPGASASLTCTLRSDISVGVYRISWYQQKPGSPPQYLLSYNSDSNNHQGSGVPSRFSGSKDASANAGILLISGLQSEDEADYYCMIWHINAWVFGGGTKVTVL
[9]
  FACS area under log transformed data MFI: 13
[10]
  FACS area under log transformed data MFI: 14
